Experimental findings from patent publication US20220411483A1 (Chugai, published 2022) are described below.

Experiment [1] concerns the target T1, FcγRIIa H type extracellular domain with C-terminal His tag (human, UniProt P12318 34-217).
T1 construct: extracellular domain; also called FcgRIIaH; not shown: His tag at the C terminus
T1 sequence (looked up): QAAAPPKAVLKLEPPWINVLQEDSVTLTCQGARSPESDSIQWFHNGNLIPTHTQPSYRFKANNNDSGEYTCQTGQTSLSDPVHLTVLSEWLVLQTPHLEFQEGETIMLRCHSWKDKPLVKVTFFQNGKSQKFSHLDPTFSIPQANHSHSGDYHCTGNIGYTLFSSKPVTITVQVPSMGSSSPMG
As to the kind of experiment: SPR, antibody captured, FcgR analyte.

Experiment [2] addresses T2, FcγRIa extracellular domain with C-terminal His tag (human, UniProt P12314 16-292).
T2 construct: also called FcgRIa; CD64; not shown: His tag at the C terminus
As to the kind of experiment: SPR, antibody captured, FcgR analyte. Background: SPR reads the build-up and loss of mass on a sensor chip optically.

The target of experiment [3] is T3, FcγRIIa R type extracellular domain with C-terminal His tag (human, UniProt P12318 34-217).
T3 construct: extracellular domain; also called FcgRIIaR; not shown: His tag at the C terminus
T3 sequence (looked up): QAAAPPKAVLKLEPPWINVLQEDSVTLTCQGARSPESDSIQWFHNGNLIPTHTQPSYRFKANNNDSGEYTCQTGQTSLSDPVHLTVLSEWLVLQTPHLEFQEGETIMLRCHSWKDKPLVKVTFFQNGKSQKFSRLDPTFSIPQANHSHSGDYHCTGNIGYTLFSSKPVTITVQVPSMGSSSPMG
The experiment is described as follows: SPR, antibody captured, FcgR analyte.

Experiment [4] deals with T4, FcγRIIb extracellular domain with C-terminal His tag (human, UniProt P31994 43-217).
T4 construct: extracellular domain; also called FcgRIIb; not shown: His tag at the C terminus
T4 sequence (looked up): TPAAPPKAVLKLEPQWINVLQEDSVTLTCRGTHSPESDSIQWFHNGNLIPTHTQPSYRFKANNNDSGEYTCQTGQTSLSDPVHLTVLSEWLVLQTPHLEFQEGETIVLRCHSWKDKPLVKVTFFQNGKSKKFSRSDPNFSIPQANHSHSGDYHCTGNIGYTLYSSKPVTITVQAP
The experiment is described as follows: SPR, antibody captured, FcgR analyte.

In experiment [5] the target is T3, FcγRIIa R type extracellular domain …. The experiment is described as follows: SPR; KD of IL6R-B3/IL6R-L divided by KD of variant.
Experiment [6] concerns the target T4, FcγRIIb extracellular domain with …. The experiment is described as follows: SPR; KD of IL6R-B3/IL6R-L divided by KD of variant.

T2 sequence (P12314 16-292): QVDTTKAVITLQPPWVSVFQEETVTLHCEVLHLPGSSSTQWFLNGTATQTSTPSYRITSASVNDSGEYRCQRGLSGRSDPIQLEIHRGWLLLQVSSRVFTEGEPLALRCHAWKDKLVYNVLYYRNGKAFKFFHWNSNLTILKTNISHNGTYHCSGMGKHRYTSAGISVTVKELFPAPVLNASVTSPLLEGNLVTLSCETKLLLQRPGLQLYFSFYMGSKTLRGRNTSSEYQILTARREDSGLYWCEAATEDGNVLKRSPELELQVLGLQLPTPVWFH

B1: IL6R-BP487/IL6R-L (antibody, human IgG1, kappa, name in EU numbering)
heavy: QVQLQESGPGLVKPSETLSLTCAVSGHSISHDHAWSWVRQPPGEGLEWIGFISYSGITNYNPSLQGRVTISRDNSKNTLYLQMNSLRAEDTAVYYCARSLARTTAMDYWGEGTLVTVSSASTKGPSVFPLAPSSKSTSGGTAALGCLVKDYFPEPVTVSWNSGALTSGVHTFPAVLQSSGLYSLSSVVTVPSSSLGTQTYICNVNHKPSNTKVDKKVEPKSCDKTHTCPPCPAPDLLGDDSVFLFPPKPKDTLMISRTPEVTCVVIDVAEEDGEVKFNWYVDGVEVHNAKTKPREEQYNSTYRVVSVLTVLHQDWLNGKEYKCKVSNKALPRPIEKTISKAKGQPREPQVYTLPPSRDELTKNQVSLTCLVKGFYPSDIAVEWESNGQPENNYKTTPMVLDSDGSFFLYSKLTVDKSRWQQGNVFSCSVMHEALHNHYTQESLSLSP
light: not shown
notes: human IgG1
The term Kd denotes the free concentration of one partner at which half of the binding sites on the other are occupied at equilibrium, for simple one-to-one binding. A low value points to tighter binding. For the molecule B1, the Kd in experiment [1] stood at 840 nM; in experiment [2], 1.2 nM; in experiment [3], 39 nM; in experiment [4] it was 1.2 nM. Further, the “Relative FcgRIIaR-binding Activity” value in experiment [5] was found to be 27.8. Besides, in experiment [6], the “Relative FcgRIIb-binding Activity” value came to 2690.

B2: IL6R-BP497/IL6R-L (antibody, human IgG1, kappa, name in EU numbering)
heavy: QVQLQESGPGLVKPSETLSLTCAVSGHSISHDHAWSWVRQPPGEGLEWIGFISYSGITNYNPSLQGRVTISRDNSKNTLYLQMNSLRAEDTAVYYCARSLARTTAMDYWGEGTLVTVSSASTKGPSVFPLAPSSKSTSGGTAALGCLVKDYFPEPVTVSWNSGALTSGVHTFPAVLQSSGLYSLSSVVTVPSSSLGTQTYICNVNHKPSNTKVDKKVEPKSCDKTHTCPPCPAPDLLGDDSVFLFPPKPKDTLMISRTPEVTCVVIDVAEEDGEVKFNWYVDGVEVHNAKTKPREEQYNSTYRVVSVLTVLHQDWLNGKEYKCKVSNKGLPRPIEKTISKAKGQPREPQVYTLPPSRDELTKNQVSLTCLVKGFYPSDIAVEWESNGQPENNYKTTPPVLDSDGSFFLYSKLTVDKSRWQQGNVFSCSVMHEALHNHYTQESLSLSP
light: not shown
notes: human IgG1
As to B2, the Kd turned out to be 960 nM in experiment [1], 2.1 nM in experiment [2], 85 nM in experiment [3] and 4.1 nM in experiment [4]. Further, in experiment [5], the “Relative FcgRIIaR-binding Activity” value came to 12.6. The “Relative FcgRIIb-binding Activity” value in experiment [6] came out at 761.

B3: IL6R-BP489/IL6R-L (antibody, human IgG1, kappa, name in EU numbering)
heavy: QVQLQESGPGLVKPSETLSLTCAVSGHSISHDHAWSWVRQPPGEGLEWIGFISYSGITNYNPSLQGRVTISRDNSKNTLYLQMNSLRAEDTAVYYCARSLARTTAMDYWGEGTLVTVSSASTKGPSVFPLAPSSKSTSGGTAALGCLVKDYFPEPVTVSWNSGALTSGVHTFPAVLQSSGLYSLSSVVTVPSSSLGTQTYICNVNHKPSNTKVDKKVEPKSCDKTHTCPPCPAPDLLGDDSVFLFPPKPKDTLMISRTPEVTCVVIDVAEEDGEVKFNWYVDGVEVHNAKTKPREEQDNSTYRVVSVLTVLHQDWLNGKEYKCKVSNKALPRPIEKTISKAKGQPREPQVYTLPPSRDELTKNQVSLTCLVKGFYPSDIAVEWESNGQPENNYKTTPMVLDSDGSFFLYSKLTVDKSRWQQGNVFSCSVMHEALHNHYTQESLSLSP
light: not shown
notes: human IgG1
B3: the Kd in experiment [1] was determined as 870 nM; in experiment [2], 1.3 nM; in experiment [3], 43 nM; in experiment [4], 1 nM. Also, in experiment [5], the “Relative FcgRIIaR-binding Activity” value was 25.2. In addition, in experiment [6], the “Relative FcgRIIb-binding Activity” value was 3090.

B4: IL6R-BP498/IL6R-L (antibody, human IgG1, kappa, name in EU numbering)
heavy: QVQLQESGPGLVKPSETLSLTCAVSGHSISHDHAWSWVRQPPGEGLEWIGFISYSGITNYNPSLQGRVTISRDNSKNTLYLQMNSLRAEDTAVYYCARSLARTTAMDYWGEGTLVTVSSASTKGPSVFPLAPSSKSTSGGTAALGCLVKDYFPEPVTVSWNSGALTSGVHTFPAVLQSSGLYSLSSVVTVPSSSLGTQTYICNVNHKPSNTKVDKKVEPKSCDKTHTCPPCPAPDLLGDDSVFLFPPKPKDTLMISRTPEVTCVVIDVAEEDGEVKFNWYVDGVEVHNAKTKPREEQYNSTYRVVSVLTVLHQDWLNGKEYKCKVSNKALPRPIEKTISKAKGQPREPQVYTLPPSRDELTKNQVSLTCLVKGFYPSDIAVEWESNGQPENNYKTTPLVLDSDGSFFLYSKLTVDKSRWQQGNVFSCSVMHEALHNHYTQESLSLSP
light: not shown
notes: human IgG1
For B4, the Kd was 930 nM in experiment [1], 1.3 nM in experiment [2], 51 nM in experiment [3] and 1.7 nM in experiment [4]. In experiment [5], the “Relative FcgRIIaR-binding Activity” value was found to be 21.3. Further, the “Relative FcgRIIb-binding Activity” value in experiment [6] amounted to 1870.

B5: IL6R-BP496/IL6R-L (antibody, human IgG1, kappa, name in EU numbering)
heavy: QVQLQESGPGLVKPSETLSLTCAVSGHSISHDHAWSWVRQPPGEGLEWIGFISYSGITNYNPSLQGRVTISRDNSKNTLYLQMNSLRAEDTAVYYCARSLARTTAMDYWGEGTLVTVSSASTKGPSVFPLAPSSKSTSGGTAALGCLVKDYFPEPVTVSWNSGALTSGVHTFPAVLQSSGLYSLSSVVTVPSSSLGTQTYICNVNHKPSNTKVDKKVEPKSCDKTHTCPPCPAPDLLGDDSVFLFPPKPKDTLMISRTPEVTCVVIDVAEEDGEVKFNWYVDGVEVHNAKTKPREEQDNSTYRVVSVLTVLHQDWLNGKEYKCKVSNKALPAPIEKTISKAKGQPREPQVYTLPPSRDELTKNQVSLTCLVKGFYPSDIAVEWESNGQPENNYKTTPPVLDSDGSFFLYSKLTVDKSRWQQGNVFSCSVMHEALHNHYTQESLSLSP
light: not shown
notes: human IgG1
On to B5, for which the dissociation constant (Kd) worked out at 3700 nM in experiment [1], 1.2 nM in experiment [2], 470 nM in experiment [3] and 18 nM in experiment [4]. The “Relative FcgRIIaR-binding Activity” value in experiment [5] was 2.3. Moreover, the “Relative FcgRIIb-binding Activity” value in experiment [6] was 168.

B6: IL6R-BP499/IL6R-L (antibody, human IgG1, kappa, name in EU numbering)
heavy: QVQLQESGPGLVKPSETLSLTCAVSGHSISHDHAWSWVRQPPGEGLEWIGFISYSGITNYNPSLQGRVTISRDNSKNTLYLQMNSLRAEDTAVYYCARSLARTTAMDYWGEGTLVTVSSASTKGPSVFPLAPSSKSTSGGTAALGCLVKDYFPEPVTVSWNSGALTSGVHTFPAVLQSSGLYSLSSVVTVPSSSLGTQTYICNVNHKPSNTKVDKKVEPKSCDKTHTCPPCPAPDLLGDDSVFLFPPKPKDTLMISRTPEVTCVVIDVAEEDGEVKFNWYVDGVEVHNAKTKPREEQDNSTYRVVSVLTVLHQDWLNGKEYKCKVSNKALPRPIEKTISKAKGQPREPQVYTLPPSRDELTKNQVSLTCLVKGFYPSDIAVEWESNGQPENNYKTTPLVLDSDGSFFLYSKLTVDKSRWQQGNVFSCSVMHEALHNHYTQESLSLSP
light: not shown
notes: human IgG1
In the case of B6, the Kd in experiment [1] came out at 1000 nM; in experiment [2], 1.2 nM; in experiment [3], 49 nM; in experiment [4], 1.5 nM. Further, in experiment [5], the “Relative FcgRIIaR-binding Activity” value is 21.9. The “Relative FcgRIIb-binding Activity” value in experiment [6] stood at 2120.

B7: IL6R-BP491/IL6R-L (antibody, human IgG1, kappa, name in EU numbering)
heavy: QVQLQESGPGLVKPSETLSLTCAVSGHSISHDHAWSWVRQPPGEGLEWIGFISYSGITNYNPSLQGRVTISRDNSKNTLYLQMNSLRAEDTAVYYCARSLARTTAMDYWGEGTLVTVSSASTKGPSVFPLAPSSKSTSGGTAALGCLVKDYFPEPVTVSWNSGALTSGVHTFPAVLQSSGLYSLSSVVTVPSSSLGTQTYICNVNHKPSNTKVDKKVEPKSCDKTHTCPPCPAPELLGDDSVFLFPPKPKDTLMISRTPEVTCVVIDVAEEDGEVKFNWYVDGVEVHNAKTKPREEQDNSTYRVVSVLTVLHQDWLNGKEYKCKVSNKALPRPIEKTISKAKGQPREPQVYTLPPSRDELTKNQVSLTCLVKGFYPSDIAVEWESNGQPENNYKTTPPVLDSDGSFFLYSKLTVDKSRWQQGNVFSCSVMHEALHNHYTQESLSLSP
light: not shown
notes: human IgG1
Turning to B7, the Kd worked out at 2200 nM in experiment [1], 5.3 nM in experiment [2], 120 nM in experiment [3] and 3 nM in experiment [4]. Also, in experiment [5], the “Relative FcgRIIaR-binding Activity” value amounted to 9.2. Besides, the “Relative FcgRIIb-binding Activity” value in experiment [6] turned out to be 1020.
